This note sets out measurements from the Immune Epitope Database (IEDB).

Broadly, the IC50 is the concentration that gives 50% inhibition. What is called Kd is the constant that tells how readily two partners part at equilibrium.

Assay [1] deals with HLA-A*02:01. Nature of the assay: IEDB peptide-MHC binding, purified MHC/competitive/radioactivity; ≥ and ≤ were set here for values at or beyond the usual limits of such assays.
In assay [2] the target is HLA-A*01:01. Nature of the assay: IEDB peptide-MHC binding, purified MHC/competitive/fluorescence; filed as Kd, often an IC50 or EC50 that approximates it; ≥ and ≤ were set here for values at or beyond the usual limits of such assays. Conditions: source organism: Variola virus.
For assay [3], the target named is HLA-B*15:17. The assay is described as above. Conditions: source organism: Variola virus.
Assay [4] addresses HLA-A*26:02. Described as above. Conditions: source organism: Variola virus.
In assay [5] the target is HLA-B*57:01. The description is as above. The conditions noted are these: source organism: Variola virus.
The target of assay [6] is HLA-B*39:01. Nature of the assay: IEDB peptide-MHC binding, purified MHC/direct/fluorescence; filed as Kd, often an IC50 or EC50 that approximates it; ≥ and ≤ were set here for values at or beyond the usual limits of such assays. The conditions noted are these: source organism: Camelpox virus CMS.
Assay [7] deals with HLA-B*58:01. The description is as above.
Assay [8] deals with HLA-A*02:01. The description is as above. The conditions noted are these: source organism: Camelpox virus CMS.
The target in assay [9] is HLA-B*48:01. The assay is described as above. Conditions: source organism: Camelpox virus CMS.
In assay [10] the target is HLA-B*27:05. The assay is described as above. The conditions noted are these: source organism: Camelpox virus CMS.
For assay [11], the target named is HLA-A*68:02. Described as above. Conditions: source organism: Camelpox virus CMS.
Assay [12] concerns the target HLA-B*18:01. Described as above. Conditions: source organism: Camelpox virus CMS.
Assay [13] deals with HLA-B*07:02. Described as above. The conditions noted are these: source organism: Camelpox virus CMS.
Assay [14] addresses HLA-A*69:01. Described as above. Conditions: source organism: Camelpox virus CMS.
The target in assay [15] is HLA-B*40:01. Described as above. The conditions noted are these: source organism: Camelpox virus CMS.
Assay [16] has as its target HLA-B*46:01. The description is as above. Conditions: source organism: Camelpox virus CMS.
The target of assay [17] is HLA-B*15:01. Described as above. Conditions: source organism: Camelpox virus CMS.
For assay [18], the target named is HLA-A*02:01. Nature of the assay: IEDB peptide-MHC binding, purified MHC/competitive/fluorescence; filed as Kd, often an IC50 or EC50 that approximates it; ≥ and ≤ were set here for values at or beyond the usual limits of such assays.
Assay [19] concerns the target HLA-A*02:11. The assay is described as above. The conditions noted are these: source organism: Canarypox virus.
For assay [20], the target named is HLA-C*03:03. Nature of the assay: IEDB peptide-MHC binding, purified MHC/direct/fluorescence; filed as Kd, often an IC50 or EC50 that approximates it; ≥ and ≤ were set here for values at or beyond the usual limits of such assays. The conditions noted are these: source organism: Canarypox virus.
Assay [21] concerns the target HLA-C*12:03. The description is as above.
Assay [22] addresses HLA-C*15:02. The assay is described as above. The conditions noted are these: source organism: Canarypox virus.
Assay [23] has as its target HLA-A*02:01. Put plainly: IEDB peptide-MHC binding, purified MHC/competitive/fluorescence; ≥ and ≤ were set here for values at or beyond the usual limits of such assays.
Assay [24] concerns the target HLA-A*01:01. The assay is described as above.
Assay [25] has as its target HLA-B*15:01. The description is as above.
The target of assay [26] is HLA-A*02:03. Nature of the assay: IEDB peptide-MHC binding, purified MHC/competitive/radioactivity; filed as Kd, often an IC50 or EC50 that approximates it; ≥ and ≤ were set here for values at or beyond the usual limits of such assays. The conditions noted are these: source organism: Trypanosoma cruzi.
The target in assay [27] is HLA-A*02:06. The description is as above. Conditions: source organism: Trypanosoma cruzi.
The target in assay [28] is HLA-A*68:02. Described as above. The conditions noted are these: source organism: Trypanosoma cruzi.
In assay [29] the target is HLA-A*02:02. The description is as above. The conditions noted are these: source organism: Trypanosoma cruzi.
The target of assay [30] is HLA-A*11:01. Nature of the assay: IEDB peptide-MHC binding, purified MHC/competitive/fluorescence; ≥ and ≤ were set here for values at or beyond the usual limits of such assays.
In assay [31] the target is HLA-A*26:01. Put plainly: IEDB peptide-MHC binding, purified MHC/direct/fluorescence; filed as Kd, often an IC50 or EC50 that approximates it; ≥ and ≤ were set here for values at or beyond the usual limits of such assays. The conditions noted are these: source organism: Orthohantavirus dobravaense.
Assay [32] has as its target HLA-A*26:02. The description is as above.
Assay [33] concerns the target HLA-B*46:01. Nature of the assay: IEDB peptide-MHC binding, purified MHC/competitive/fluorescence; filed as Kd, often an IC50 or EC50 that approximates it; ≥ and ≤ were set here for values at or beyond the usual limits of such assays. The conditions noted are these: source organism: Mycobacterium tuberculosis variant bovis BCG str. Pasteur 1173P2.
The target of assay [34] is HLA-B*57:01. Nature of the assay: IEDB peptide-MHC binding, purified MHC/direct/fluorescence; filed as Kd, often an IC50 or EC50 that approximates it; ≥ and ≤ were set here for values at or beyond the usual limits of such assays. The conditions noted are these: source organism: Mycobacterium tuberculosis variant bovis.
Assay [35] concerns the target HLA-B*08:01. Put plainly: IEDB peptide-MHC binding, purified MHC/competitive/radioactivity; filed as Kd, often an IC50 or EC50 that approximates it; ≥ and ≤ were set here for values at or beyond the usual limits of such assays. Conditions: source organism: Vaccinia virus WR.
Assay [36] concerns the target HLA-B*15:03. The description is as above. The conditions noted are these: source organism: Vaccinia virus WR.
Assay [37] deals with HLA-A*32:01. The description is as above. Conditions: source organism: Vaccinia virus WR.
Assay [38] addresses HLA-B*15:01. The description is as above. Conditions: source organism: Vaccinia virus WR.
The target of assay [39] is HLA-A*30:01. The description is as above. The conditions noted are these: source organism: Vaccinia virus WR.
Assay [40] deals with HLA-A*03:01. Nature of the assay: IEDB peptide-MHC binding, purified MHC/competitive/fluorescence; ≥ and ≤ were set here for values at or beyond the usual limits of such assays. Conditions: source organism: Variola virus.
Setting [41] is: source organism: Canarypox virus.
Where [42] appears, read: source organism: Zaire ebolavirus.
Where [43] appears, read: source organism: Vaccinia virus WR.

Regarding NLIYRNLHL, the concentration for half-maximal inhibition (IC50) in [1] (source organism: Rhinovirus A) was 200 nM.
Consider SSDDIPPRW, for which the Kd was no less than 20000 nM in [2]; no less than 20000 nM in assay [3]; no less than 20000 nM in assay [4]; 1480 nM in [5]; no less than 20000 nM in assay [6]; 27.9 nM in assay [7] (source organism: Camelpox virus CMS). In addition, the dissociation constant Kd in [8], in assay [9], in [10], in [11], in assay [12] and in assay [13] was no less than 20000 nM throughout. The dissociation constant Kd in assay [14], in [15], in assay [16] and in assay [17] was no less than 20000 nM in each case.
As to YLDSGIHSGA, the IC50 in assay [1] (source organism: Homo sapiens) turned out to be 83.5 nM.
Turning to YIIPCILIL, the dissociation constant Kd is 59.4 nM in [18] (setting [41]); 240 nM in [19]; 229 nM in [20]; 327 nM in assay [21] (setting [41]); no less than 20000 nM in [22].
Regarding LLQLNETIY, the half-maximal inhibitory concentration (IC50) was no less than 78300 nM in assay [23] (setting [42]), no less than 88900 nM in assay [24] (setting [42]) and 3160 nM in assay [25] (setting [42]).
The sequence HAATNFREI showed a dissociation constant (Kd) in assay [21] (source organism: Angomonas deanei) of 25 nM.
In the case of LLGLWGTAAL, the Kd in assay [26] came to 7.21 nM; in assay [27], 1260 nM; in [28], 8190 nM; in assay [29] it was 1.93 nM. Besides, the concentration for half-maximal inhibition (IC50) in assay [1] (source organism: Trypanosoma cruzi) was found to be 499 nM.
With CQWGRLWQL, the concentration for half-maximal inhibition (IC50) in assay [1] (source organism: Homo sapiens) is 1420 nM.
For the sequence FTEQAFYTR, the IC50 in assay [24] (setting [43]) is 26300 nM; in assay [30] (setting [43]), 17700 nM.
With LLDVPTAAV, in assay [1] (source organism: Homo sapiens), the 50% inhibitory concentration (IC50) was 10 nM.
On to ETVEWALKF, for which the figures for the Kd in [31] and in [32] (source organism: Kurkino virus) were 3.2 nM and no more than 1 nM, respectively.
Consider VAFYCAGRF, for which the Kd in assay [33] was 748 nM; in assay [7] (source organism: Mycobacterium tuberculosis variant bovis) it was 112 nM; in assay [21] (source organism: Mycobacterium tuberculosis variant bovis BCG str. Pasteur 1173P2) it was 58 nM; in [34] it was 450 nM.
Take FIFLKKNEL: the dissociation constant (Kd) in assay [18] (source organism: Variola virus) is 3020 nM; in assay [35], 96.6 nM; in [36] it was 18500 nM; in assay [37] it was 12800 nM; in assay [38] it was 4770 nM; in assay [39], 43.9 nM. The Kd in [21] (source organism: Variola virus) worked out at 1440 nM.
In the case of LSLTKLFSY, the IC50 in assay [23] (source organism: Variola virus) was no less than 103000 nM; in [24] (source organism: Variola virus) it was 3710 nM; in [40], 18900 nM; in assay [30] (source organism: Variola virus), 4130 nM; in [25] (source organism: Variola virus), 15500 nM.
Consider FLDPATTTS, for which the concentration for half-maximal inhibition (IC50) in [23] (setting [42]) was 1780 nM; in [24] (setting [42]) it was no less than 145000 nM.
FCIKVLCPY registered an equilibrium dissociation constant (Kd) in [32] (source organism: West Nile virus SPU116/89) of 96 nM.
